Measurements from the Immune Epitope Database (IEDB).
pKd: −log10 of the molar value.

How the values were obtained:
HLA-B*51:01 [1] = experiment: IEDB peptide-MHC binding, purified MHC/competitive/fluorescence; filed as Kd, often an IC50 or EC50 that approximates it; ≥ and ≤ were set here for values at or beyond the usual limits of such assays
HLA-B*07:02 [2] = experiment: as above
HLA-B*27:05 = experiment: as above; conditions: source organism: Influenza A virus (A/swine/Hong Kong/81/1978(H3N2))
HLA-B*51:01 [3] = experiment: IEDB peptide-MHC binding, purified MHC/direct/fluorescence; filed as Kd, often an IC50 or EC50 that approximates it; ≥ and ≤ were set here for values at or beyond the usual limits of such assays; conditions: source organism: human gammaherpesvirus 4
HLA-A*11:01 = experiment: IEDB peptide-MHC binding, purified MHC/competitive/fluorescence; filed as Kd, often an IC50 or EC50 that approximates it; ≥ and ≤ were set here for values at or beyond the usual limits of such assays; conditions: source organism: Influenza A virus (A/swine/Scotland/410440/94(H1N2))
HLA-A*03:01 [4] = experiment: IEDB peptide-MHC binding, purified MHC/direct/fluorescence; filed as Kd, often an IC50 or EC50 that approximates it; ≥ and ≤ were set here for values at or beyond the usual limits of such assays
HLA-A*02:12 [5] = experiment: as above
HLA-A*02:16 = experiment: as above
HLA-A*24:03 [6] = experiment: as above; conditions: source organism: Influenza A virus (A/ferret/Maryland/P10-UMD/2008(H9N2))
HLA-A*02:03 [7] = experiment: as above
HLA-A*02:19 [8] = experiment: as above
HLA-A*23:01 = experiment: as above; conditions: source organism: Influenza A virus (A/ferret/Maryland/P10-UMD/2008(H9N2))
HLA-A*68:02 [9] = experiment: as above
HLA-A*02:11 [10] = experiment: as above
HLA-B*39:01 = experiment: IEDB peptide-MHC binding, purified MHC/competitive/fluorescence; filed as Kd, often an IC50 or EC50 that approximates it; ≥ and ≤ were set here for values at or beyond the usual limits of such assays
HLA-B*27:03 = experiment: as above
HLA-A*26:01 = experiment: as above
HLA-A*02:01 = experiment: as above
HLA-B*46:01 = experiment: as above
HLA-B*15:01 = experiment: as above
HLA-B*57:01 = experiment: as above
HLA-A*69:01 = experiment: as above
HLA-B*18:01 = experiment: as above
HLA-A*03:01 [11] = experiment: as above
HLA-A*02:12 [12] = experiment: as above
HLA-A*24:03 [13] = experiment: as above
HLA-A*02:03 [14] = experiment: as above
HLA-A*02:19 [15] = experiment: as above
HLA-A*29:02 = experiment: as above
HLA-A*02:11 [16] = experiment: as above
HLA-C*06:02 = experiment: IEDB peptide-MHC binding, purified MHC/direct/fluorescence; filed as Kd, often an IC50 or EC50 that approximates it; ≥ and ≤ were set here for values at or beyond the usual limits of such assays
HLA-B*07:02 [17] = experiment: as above; conditions: source organism: Sudan ebolavirus - Maleo (1979)
HLA-B*15:17 = experiment: IEDB peptide-MHC binding, purified MHC/competitive/fluorescence; filed as Kd, often an IC50 or EC50 that approximates it; ≥ and ≤ were set here for values at or beyond the usual limits of such assays; conditions: source organism: Zaire ebolavirus
HLA-C*03:03 = experiment: IEDB peptide-MHC binding, purified MHC/direct/fluorescence; filed as Kd, often an IC50 or EC50 that approximates it; ≥ and ≤ were set here for values at or beyond the usual limits of such assays; conditions: source organism: Vaccinia virus WR
HLA-A*02:02 = experiment: IEDB peptide-MHC binding, purified MHC/competitive/radioactivity; filed as Kd, often an IC50 or EC50 that approximates it; ≥ and ≤ were set here for values at or beyond the usual limits of such assays; conditions: source organism: Vaccinia virus WR
HLA-A*02:03 [18] = experiment: as above; conditions: source organism: Vaccinia virus WR
HLA-A*02:06 = experiment: as above; conditions: source organism: Vaccinia virus WR
HLA-A*68:02 [19] = experiment: as above; conditions: source organism: Vaccinia virus WR
[20] = source organism: Escherichia coli str. K-12 substr. MG1655
[21] = source organism: Influenza A virus (A/ferret/Maryland/P10-UMD/2008(H9N2))
[22] = source organism: Influenza A virus (A/Victoria/1968(H3N2))
[23] = source organism: Yersinia pestis Antiqua
[24] = source organism: Zaire ebolavirus
[25] = source organism: Vibrio cholerae 2740-80

## APTADVAKI
HLA-B*51:01 [1]; [20]
  pKd: ≤ 4.70
HLA-B*07:02 [2]; [20]
  pKd: 6.06

## GRIQDLEKY
HLA-B*27:05
  pKd: 6.95

## HPVGEADYFEY
HLA-B*51:01 [3]
  pKd: ≤ 4.70
HLA-B*07:02 [2]; source organism: Human herpesvirus 4 strain B95-8
  pKd: ≤ 4.70

## KVYKTYFEK
HLA-A*11:01
  pKd: 8.33

## NMDKAVKLY
HLA-A*03:01 [4]; [21]
  pKd: ≤ 4.70
HLA-A*02:12 [5]; [21]
  pKd: ≤ 4.70
HLA-A*02:16; [21]
  pKd: ≤ 4.70
HLA-A*24:03 [6]
  pKd: ≤ 4.70
HLA-A*02:03 [7]; [21]
  pKd: ≤ 4.70
HLA-A*02:19 [8]; [21]
  pKd: ≤ 4.70
HLA-A*23:01
  pKd: ≤ 4.70
HLA-A*68:02 [9]; [21]
  pKd: ≤ 4.70
HLA-A*02:11 [10]; [21]
  pKd: ≤ 4.70
HLA-B*39:01; [22]
  pKd: ≤ 4.70
HLA-B*27:03; [22]
  pKd: ≤ 4.70
HLA-A*26:01; [22]
  pKd: ≤ 4.70
HLA-A*02:01; [22]
  pKd: ≤ 4.70
HLA-B*51:01 [1]; [22]
  pKd: ≤ 4.70
HLA-B*46:01; [22]
  pKd: ≤ 4.70
HLA-B*15:01; [22]
  pKd: ≤ 4.70
HLA-B*57:01; [22]
  pKd: ≤ 4.70
HLA-A*69:01; [22]
  pKd: ≤ 4.70

## PLTNQRYRV
HLA-B*18:01; [23]
  pKd: ≤ 4.70
HLA-B*39:01; [23]
  pKd: ≤ 4.70
HLA-B*27:03; [23]
  pKd: ≤ 4.70
HLA-A*03:01 [11]; [23]
  pKd: ≤ 4.70
HLA-A*02:12 [12]; [23]
  pKd: ≤ 4.70
HLA-A*26:01; [23]
  pKd: ≤ 4.70
HLA-A*02:01; [23]
  pKd: ≤ 4.70
HLA-A*24:03 [13]; [23]
  pKd: ≤ 4.70
HLA-A*02:03 [14]; [23]
  pKd: ≤ 4.70
HLA-A*02:19 [15]; [23]
  pKd: 6.10
HLA-B*51:01 [1]; [23]
  pKd: ≤ 4.70
HLA-B*46:01; [23]
  pKd: ≤ 4.70
HLA-B*15:01; [23]
  pKd: ≤ 4.70
HLA-B*57:01; [23]
  pKd: ≤ 4.70
HLA-A*29:02; [23]
  pKd: ≤ 4.70
HLA-A*02:11 [16]; [23]
  pKd: ≤ 4.70

## RARLWPRSM
HLA-C*06:02; source organism: Mycobacterium tuberculosis variant bovis BCG str. Pasteur 1173P2
  pKd: 6.15

## TPSGKRLQI
HLA-A*03:01 [4]; [24]
  pKd: ≤ 4.70
HLA-A*02:12 [5]; [24]
  pKd: ≤ 4.70
HLA-A*02:16; [24]
  pKd: ≤ 4.70
HLA-A*02:03 [7]; [24]
  pKd: ≤ 4.70
HLA-A*02:19 [8]; [24]
  pKd: ≤ 4.70
HLA-B*07:02 [17]
  pKd: 7.45
HLA-A*68:02 [9]; [24]
  pKd: ≤ 4.70
HLA-A*02:11 [10]; [24]
  pKd: ≤ 4.70
HLA-B*18:01; [24]
  pKd: ≤ 4.70
HLA-B*39:01; [24]
  pKd: ≤ 4.70
HLA-B*27:03; [24]
  pKd: ≤ 4.70
HLA-B*15:17
  pKd: ≤ 4.70
HLA-A*26:01; [24]
  pKd: ≤ 4.70
HLA-A*02:01; [24]
  pKd: ≤ 4.70
HLA-B*51:01 [1]; [24]
  pKd: ≤ 4.70
HLA-B*46:01; [24]
  pKd: ≤ 4.70
HLA-B*15:01; [24]
  pKd: ≤ 4.70
HLA-B*57:01; [24]
  pKd: ≤ 4.70
HLA-A*69:01; [24]
  pKd: ≤ 4.70

## YEPEMQAQV
HLA-B*18:01; [25]
  pKd: ≤ 4.70
HLA-B*39:01; [25]
  pKd: ≤ 4.70
HLA-B*27:03; [25]
  pKd: ≤ 4.70
HLA-A*03:01 [11]; [25]
  pKd: ≤ 4.70
HLA-A*02:12 [12]; [25]
  pKd: ≤ 4.70
HLA-A*26:01; [25]
  pKd: ≤ 4.70
HLA-A*02:01; [25]
  pKd: ≤ 4.70
HLA-A*24:03 [13]; [25]
  pKd: ≤ 4.70
HLA-A*02:03 [14]; [25]
  pKd: ≤ 4.70
HLA-A*02:19 [15]; [25]
  pKd: 6.07
HLA-B*51:01 [1]; [25]
  pKd: ≤ 4.70
HLA-B*46:01; [25]
  pKd: ≤ 4.70
HLA-B*15:01; [25]
  pKd: ≤ 4.70
HLA-B*57:01; [25]
  pKd: ≤ 4.70
HLA-A*29:02; [25]
  pKd: ≤ 4.70
HLA-A*02:11 [16]; [25]
  pKd: ≤ 4.70

## YIYGIPLSL
HLA-C*03:03
  pKd: ≥ 9.00
HLA-A*02:02
  pKd: 6.34
HLA-A*02:03 [18]
  pKd: 4.88
HLA-A*02:06
  pKd: 4.94
HLA-A*68:02 [19]
  pKd: 5.73

## YRTATLRTL
HLA-C*06:02; source organism: human gammaherpesvirus 4
  pKd: 8.05
